Two molecules from patent US20200079850A1 (SUTRO BIOPHARMA, published 2020) can be followed below.

The target of experiment [1] is PD-1 (residues 1-199) C-terminally fused to the beta-galactosidase enzyme acceptor (EA) fragment, on U2OS … (human, UniProt Q15116 25-199). Description: cell-based or functional assay.
The target of experiment [2] is LAG3 (residues 1-477) C-terminally fused to the beta-galactosidase ProLink (PK) fragment, on U2OS cells (human). Description: cell-based or functional assay.
Experiment [3] addresses T1, hLAG3 (Acro Biosystems), SPR analyte (human, UniProt P18627 23-450).
T1 construct: also called human LAG3 kinetics
T1 sequence: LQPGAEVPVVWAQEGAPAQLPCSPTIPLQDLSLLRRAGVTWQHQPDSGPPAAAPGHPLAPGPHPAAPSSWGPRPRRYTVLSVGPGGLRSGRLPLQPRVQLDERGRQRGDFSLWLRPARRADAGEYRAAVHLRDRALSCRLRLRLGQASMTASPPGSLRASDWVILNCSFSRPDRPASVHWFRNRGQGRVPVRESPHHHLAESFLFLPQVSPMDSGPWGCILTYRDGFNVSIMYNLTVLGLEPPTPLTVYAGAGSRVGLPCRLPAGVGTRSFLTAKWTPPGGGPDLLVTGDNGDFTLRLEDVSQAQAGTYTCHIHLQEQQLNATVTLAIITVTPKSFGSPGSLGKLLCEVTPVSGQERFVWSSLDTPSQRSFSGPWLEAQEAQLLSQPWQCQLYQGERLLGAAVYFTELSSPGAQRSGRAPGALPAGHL
Description: SPR (Biacore), antibody captured by anti-Fc, hLAG3 as analyte, 25 C. On the procedure:
Anti-Fc polyclonal antibodies were immobilized onto a CMS chip (GE Life Sciences) using amine coupling chemistry (from Amine Coupling Kit, GE Life Sciences). The immobilization steps were carried out at a flow rate of 25 μl/min in 1×HBS-EP+buffer (GE Life Sciences; 10× Stock diluted before use). The sensor surfaces were activated for 7 min with a mixture of NHS (0.05 M) and EDC (0.2 M). The Anti-Fc antibodies were injected over all 4 flow cells at a concentration of 25 ug/ml in 10 mM sodium acetate, pH 4.5, for 7 min. Ethanolamine (1 M, pH 8.5) was injected for 7 min to block any remaining activated groups. An average of 12,000 response units (RU) of capture antibody was immobilized on each flow cell.
Kinetic binding experiments were performed at 25° C. using 1×HBS-EP+buffer. Test and control antibodies were injected over the anti-Fc surface at concentrations of 5-10 μg/mL for 12 seconds at a flow rate of 10 μl/min on flow cells 2, 3 and 4, followed by a buffer wash for 30 seconds at the same flow rate. Kinetic characterization of antibody samples was carried out with a dilution series of antigen and 1 injection of 0 nM antigen. After capturing ligand (antibody) on the anti-Fc surface, the analyte (hPD1 or hLAG3, Acro Biosystems, Newark, Del.) was bound at 100, 25, 6.25 and 0 nM for 180 seconds, followed by a 450 second dissociation phase at a flow rate of 50 μl/min. Between each ligand capture and analyte binding cycle, regeneration was carried out using 2 injections of 10 mM Glycine pH 2.0 for 30 seconds at 30 μL/min, followed by a 30 second buffer wash step.
The data was fit with the Biacore T200 Evaluation software, using a 1:1 Langmuir binding model. KD (affinity, nM) was determined as a ratio of the kinetic rate constants calculated from the fits of the association and dissociation phases.
Background: Surface plasmon resonance follows binding to a sensor surface in real time, without labels.

In experiment [4] the target is T2, rabbit Fc-tagged recombinant human PD1 (rhPD1-rabbit Fc) (human, UniProt Q15116 25-167, limits assumed).
T2 construct: also called recombinant human PD-1 protein
Description: flow cytometry competition: inhibition of rhPD1-rabbit Fc binding to human PD-L2 on CHO cells; PE anti-rabbit IgG detection. On the procedure:
CHO-k cells stably expressing human PD-L1 or PD-L2 were used to measure the ability of anti-PD1/LAG3 bi-specific antibody constructs to block rabbit Fc-tagged recombinant human PD1 (rhPD1-rabbit Fc) protein binding. Cells were seeded at 100,000 cells/well in 100 μL of FACS buffer in 96-well polypropylene plates. The cells were centrifuged and resuspended with test antibodies (2× concentration) diluted in FACS buffer, immediately followed by equal volume of rhPD1-rabbit Fc (added at 2× concentration; 0.2 ng/mL and 0.1 ng/mL final for PD-L1 and PD-L2, respectively). Cells were incubated on ice for 1 hour and washed twice. rhPD1-rabbit Fc binding on CHO-human PD-L1 or PD-L2 cells was detected with R-Phycoerythrin AffiniPure F(ab′)₂ Fragment Goat Anti-Rabbit IgG (H+L) (1:200 dilution, Jackson ImmunoResearch) for 30 minutes. The cells were washed twice with FACS buffer, fixed in 4% paraformaldehyde in PBS for 20 mins on ice in the dark, washed twice with FACS buffer, and analyzed using the BD LSR II Flow Cytometer. Data were analyzed using FlowJo (FlowJo, LLC; Ashland, Oreg.) to determine mean fluorescence intensities. Prism 6 software was used to create one site, specific binding with Hill slope curves (Log transform) to determine IC₅₀ values.
(In general: In flow cytometry, cells or beads pass a laser one at a time.)

The target in experiment [5] is T3, recombinant human LAG3 protein (rhLAG3), HIS-tagged (ACRO) or biotinylated (R&D Cat #2319-C3) (human, UniProt P18627 23-450, biotinylated in part of the assays).
T3 sequence: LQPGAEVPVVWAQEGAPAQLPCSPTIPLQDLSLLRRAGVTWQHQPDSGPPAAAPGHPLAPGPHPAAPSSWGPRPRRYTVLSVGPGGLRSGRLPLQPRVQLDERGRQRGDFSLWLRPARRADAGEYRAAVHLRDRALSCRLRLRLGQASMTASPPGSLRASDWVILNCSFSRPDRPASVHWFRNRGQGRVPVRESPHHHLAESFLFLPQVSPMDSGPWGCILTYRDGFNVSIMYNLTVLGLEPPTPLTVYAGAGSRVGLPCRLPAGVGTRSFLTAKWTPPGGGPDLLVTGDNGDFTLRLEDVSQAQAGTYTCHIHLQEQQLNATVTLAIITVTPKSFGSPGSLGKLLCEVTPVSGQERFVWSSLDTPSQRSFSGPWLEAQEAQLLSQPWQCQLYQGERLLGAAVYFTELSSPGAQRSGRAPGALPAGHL
Description: flow cytometry competition: inhibition of biotinylated rhLAG3 binding to MHC class II on Daudi cells; PE-streptavidin detection. How it is done:
Daudi cells expressing Major Histocompatibility Class II (MHCII) molecules, the natural ligand for LAG3, were used to measure the ability of anti-PD1/LAG3 bi-specific antibody constructs to block biotinylated (ThermoFisher, Cat #21329) recombinant human LAG3 protein (rhLAG3, R&D Cat #2319-C3) binding. Cells were seeded at 100,000 cells/well in 100 μL of FACS buffer in 96-well polypropylene plates. The cells were centrifuged and resuspended with test antibodies (2× concentration) diluted in FACS buffer, immediately followed by equal volume of biotinylated rhLAG3 (added at 2× concentration; 7.5 μg/mL final). Cells were incubated on ice for 1 hour and washed twice. Biotinylated rhLAG3 binding was detected with 2 μg/mL R-Phycoerythrin-conjugated Streptavidin (eBioscience) for 30 minutes. Cells were washed twice with FACS buffer, fixed in 4% paraformaldehyde in PBS for 20 mins on ice in the dark, washed twice with FACS buffer, and analyzed using the BD LSR II Flow Cytometer. Data were analyzed using FlowJo (FlowJo, LLC; Ashland, Oreg.) to determine mean fluorescence intensities. Prism 6 software was used to create one site, specific binding with Hill slope curves (Log transform) to determine IC₅₀ values. […]

T2 sequence (Q15116 25-167 limits assumed): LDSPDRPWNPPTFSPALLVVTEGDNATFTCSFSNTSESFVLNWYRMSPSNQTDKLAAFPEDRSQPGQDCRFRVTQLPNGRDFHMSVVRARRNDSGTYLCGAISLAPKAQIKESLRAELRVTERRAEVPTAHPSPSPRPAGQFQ
LAG3 (residues 1-477) C-terminally fused to the beta-galactosidase ProLink (PK) fragment, on U2OS cells (human), sequence (P18627 1-477): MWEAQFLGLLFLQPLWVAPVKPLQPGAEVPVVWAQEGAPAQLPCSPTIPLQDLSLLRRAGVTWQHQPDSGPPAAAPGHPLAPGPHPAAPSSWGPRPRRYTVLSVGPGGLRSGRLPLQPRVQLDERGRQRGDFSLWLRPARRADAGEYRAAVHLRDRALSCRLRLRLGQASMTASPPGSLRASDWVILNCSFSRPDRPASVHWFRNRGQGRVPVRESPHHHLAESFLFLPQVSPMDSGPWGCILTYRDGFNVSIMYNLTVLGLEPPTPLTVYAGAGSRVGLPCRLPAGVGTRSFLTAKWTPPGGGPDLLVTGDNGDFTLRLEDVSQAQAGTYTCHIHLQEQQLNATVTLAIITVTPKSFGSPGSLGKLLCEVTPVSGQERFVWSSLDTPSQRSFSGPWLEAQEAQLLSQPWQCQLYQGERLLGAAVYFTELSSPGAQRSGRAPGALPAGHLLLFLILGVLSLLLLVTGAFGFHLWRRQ

B1: PD-1/LAG3 Bi-specific Construct B: aPD1 1353-G10 scFvFc zwB R28T/P30D/H31S V262E; aLAG3 1449-G09.2 Fab zwA V262E (bispecific antibody, human IgG1, kappa)
scFv: EVQLVQSGAEVKKPGASVKVSCKASGYTFDSYGISWVRQAPGQGLEWMGWISAYNGNTNYAQKLQGRVTMTTDTSTNTAYMELRSLRSDDTAVYYCARDVDYGTGSGYWGQGTLVTVSSGGGGSGGGGSGGGGSSYELTQPPSVSVSPGQTARITCSGDALPKQYAYWYQQKPGQAPVMVIYKDTERPSGIPERFSGSSSGTKVTLTISGVQAEDEADYYCQSADNSITYRVFGGGTKVTVLAAGSDQEPKSSDKTHTCPPCPAPELLGGPSVFLFPPKPKDTLMISRTPEVTCEVVDVSHEDPEVKFNWYVDGVEVHNAKTKPREEQYNSTYRVVSVLTVLHQDWLNGKEYKCKVSNKALPAPIEKTISKAKGQPREPQVYVLPPSREEMTKNQVSLLCLVKGFYPSDIAVEWESNGQPENNYLTWPPVLDSDGSFFLYSKLTVDKSRWQQGNVFSCSVMHEALHNHYTQKSLSLSPGK
heavy: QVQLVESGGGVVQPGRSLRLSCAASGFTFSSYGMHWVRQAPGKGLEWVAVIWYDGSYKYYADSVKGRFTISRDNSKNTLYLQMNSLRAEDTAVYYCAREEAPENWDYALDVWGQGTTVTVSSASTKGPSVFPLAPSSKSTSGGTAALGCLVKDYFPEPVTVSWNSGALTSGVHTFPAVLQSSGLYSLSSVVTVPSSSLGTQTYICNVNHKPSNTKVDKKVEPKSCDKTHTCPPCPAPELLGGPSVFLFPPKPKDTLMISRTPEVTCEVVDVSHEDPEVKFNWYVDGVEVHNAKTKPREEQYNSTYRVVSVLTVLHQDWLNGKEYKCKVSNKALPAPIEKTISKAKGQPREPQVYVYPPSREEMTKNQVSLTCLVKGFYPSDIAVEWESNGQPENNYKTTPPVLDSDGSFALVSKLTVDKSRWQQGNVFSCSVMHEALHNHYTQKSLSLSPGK
light: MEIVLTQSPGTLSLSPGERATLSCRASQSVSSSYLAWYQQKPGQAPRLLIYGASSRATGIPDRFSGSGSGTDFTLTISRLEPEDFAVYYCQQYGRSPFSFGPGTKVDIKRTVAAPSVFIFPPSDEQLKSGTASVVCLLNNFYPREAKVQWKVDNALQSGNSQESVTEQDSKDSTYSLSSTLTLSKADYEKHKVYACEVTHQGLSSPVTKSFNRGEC
notes: The N-terminal Met is not included
For B1, the “EC50 of beta-galactosidase enzyme-fragment complementation (RLU) on U2OS cells co-expressing PD-1-EA and LAG3-PK; PD-1/LAG3 cell bridging, needs both targets” value (shortened to “EC50”) in experiment [1] worked out at 0.16 nM. In addition, the “EC50” value in experiment [2] worked out at 0.16 nM. In addition, in experiment [3], the equilibrium dissociation constant (Kd) (as a rule, the constant that tells how readily two partners part at equilibrium) was 0.0944 nM; the koff (commonly a measure of how fast the partners let go of each other) is 0.000138 s⁻¹; the association rate constant (kon) (as a rule, a measure of how fast the partners come together) is 1.46e+06 M⁻¹ s⁻¹. Besides, the IC50 (as a rule, the concentration that inhibits the measured activity by half) in experiment [4] was 3.3 nM. Also, the IC50 in experiment [5] is 24 nM.

B2: PD-1/LAG3 Bi-specific Construct C: aPD1 1353-G10 Vk1-39LC scFvFc zwB V262E; aLAG3 1449-G09.2 Fab zwA V262E (bispecific antibody, human IgG1, kappa)
scFv: EVQLVQSGAEVKKPGASVKVSCKASGYRFPHYGISWVRQAPGQGLEWMGWISAYNGNTNYAQKLQGRVTMTTDTSTNTAYMELRSLRSDDTAVYYCARDVDYGTGSGYWGQGTLVTVSSGGGGSGGGGSGGGGSDIQLTQSPSSLSASVGDRVTITCSGDALPKQYAYWYQQKPGKAPKLLIYKDTERPSGVPSRFSGSSSGTKVTLTISSLQPEDFATYYCQSADNSITYRVFGGGTKVEIKAAGSDQEPKSSDKTHTCPPCPAPELLGGPSVFLFPPKPKDTLMISRTPEVTCEVVDVSHEDPEVKFNWYVDGVEVHNAKTKPREEQYNSTYRVVSVLTVLHQDWLNGKEYKCKVSNKALPAPIEKTISKAKGQPREPQVYVLPPSREEMTKNQVSLLCLVKGFYPSDIAVEWESNGQPENNYLTWPPVLDSDGSFFLYSKLTVDKSRWQQGNVFSCSVMHEALHNHYTQKSLSLSPGK
heavy: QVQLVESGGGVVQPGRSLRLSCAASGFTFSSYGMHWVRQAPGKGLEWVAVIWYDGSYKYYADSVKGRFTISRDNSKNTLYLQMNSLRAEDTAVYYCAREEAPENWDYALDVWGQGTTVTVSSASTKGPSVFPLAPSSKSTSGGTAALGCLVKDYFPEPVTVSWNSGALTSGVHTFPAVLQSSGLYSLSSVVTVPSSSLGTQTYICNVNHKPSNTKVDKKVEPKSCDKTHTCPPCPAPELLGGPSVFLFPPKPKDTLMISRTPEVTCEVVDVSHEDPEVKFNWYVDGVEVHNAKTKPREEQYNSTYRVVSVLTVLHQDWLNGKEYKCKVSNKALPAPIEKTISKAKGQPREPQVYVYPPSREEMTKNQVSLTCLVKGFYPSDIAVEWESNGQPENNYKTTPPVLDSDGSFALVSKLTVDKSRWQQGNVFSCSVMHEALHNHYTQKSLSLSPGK
light: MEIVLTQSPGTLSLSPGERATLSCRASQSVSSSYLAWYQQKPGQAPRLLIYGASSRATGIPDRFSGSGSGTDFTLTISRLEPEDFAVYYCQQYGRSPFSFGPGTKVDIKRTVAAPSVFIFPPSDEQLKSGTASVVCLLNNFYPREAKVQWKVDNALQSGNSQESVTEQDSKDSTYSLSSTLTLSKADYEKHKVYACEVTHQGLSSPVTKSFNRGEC
notes: as for B1
For the molecule B2, the “EC50” value in experiment [1] and in experiment [2] was 0.13 nM throughout. In experiment [3], the Kd was 0.519 nM. In experiment [3], this molecule registered a koff of 0.000694 s⁻¹. The molecule also gave a kon in experiment [3] of 1.34e+06 M⁻¹ s⁻¹. Also, the figures for the IC50 in experiment [4] and in experiment [5] were 1.5 nM and 24 nM, respectively.
